Publication doi:10.1101/2024.10.14.618219 (bioRxiv, 2024)

Experiments:
Assay in all cases: single-molecule TIRF co-localization
Kif3A^ΔC89-Kif3B = Kif3A^ΔC89-Kif3B (human, UniProt Q9Y496 1-610; O15066 1-747, SNAPf tag labeled with Alexa 647)
Kif3A-Kif3B^ΔC90 = Kif3A-Kif3B^ΔC90 (human, UniProt Q9Y496 1-699; O15066 1-657, SNAPf tag labeled with Alexa 647)
Kif3A-Kif3B^ΔC114 = Kif3A-Kif3B^ΔC114 (human, UniProt Q9Y496 1-699; O15066 1-633, SNAPf tag labeled with Alexa 647)
Kif3A-Kif3B^ΔC114, sequence (Q9Y496 whole entry, stated change not applied, chain 1 of 2): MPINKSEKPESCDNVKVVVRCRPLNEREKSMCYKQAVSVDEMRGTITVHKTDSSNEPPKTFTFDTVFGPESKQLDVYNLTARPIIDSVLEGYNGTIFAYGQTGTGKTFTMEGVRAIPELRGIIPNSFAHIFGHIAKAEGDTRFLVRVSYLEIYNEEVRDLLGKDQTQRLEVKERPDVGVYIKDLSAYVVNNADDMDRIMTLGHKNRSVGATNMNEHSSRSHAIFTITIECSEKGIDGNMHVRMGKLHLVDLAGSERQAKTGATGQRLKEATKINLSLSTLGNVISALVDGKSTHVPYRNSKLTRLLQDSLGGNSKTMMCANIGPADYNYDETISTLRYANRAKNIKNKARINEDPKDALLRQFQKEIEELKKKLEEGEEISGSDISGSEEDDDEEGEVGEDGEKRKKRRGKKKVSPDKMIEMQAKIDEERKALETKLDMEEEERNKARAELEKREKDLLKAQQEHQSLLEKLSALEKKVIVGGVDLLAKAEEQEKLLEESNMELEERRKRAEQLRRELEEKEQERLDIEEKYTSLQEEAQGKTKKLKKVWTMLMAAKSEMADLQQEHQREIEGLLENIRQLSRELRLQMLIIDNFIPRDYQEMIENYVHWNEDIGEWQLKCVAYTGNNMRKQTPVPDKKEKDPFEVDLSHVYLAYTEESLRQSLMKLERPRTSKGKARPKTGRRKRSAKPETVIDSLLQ
Kif3A-Kif3B^ΔC114, sequence (O15066 1-633, stated change not applied, chain 2 of 2): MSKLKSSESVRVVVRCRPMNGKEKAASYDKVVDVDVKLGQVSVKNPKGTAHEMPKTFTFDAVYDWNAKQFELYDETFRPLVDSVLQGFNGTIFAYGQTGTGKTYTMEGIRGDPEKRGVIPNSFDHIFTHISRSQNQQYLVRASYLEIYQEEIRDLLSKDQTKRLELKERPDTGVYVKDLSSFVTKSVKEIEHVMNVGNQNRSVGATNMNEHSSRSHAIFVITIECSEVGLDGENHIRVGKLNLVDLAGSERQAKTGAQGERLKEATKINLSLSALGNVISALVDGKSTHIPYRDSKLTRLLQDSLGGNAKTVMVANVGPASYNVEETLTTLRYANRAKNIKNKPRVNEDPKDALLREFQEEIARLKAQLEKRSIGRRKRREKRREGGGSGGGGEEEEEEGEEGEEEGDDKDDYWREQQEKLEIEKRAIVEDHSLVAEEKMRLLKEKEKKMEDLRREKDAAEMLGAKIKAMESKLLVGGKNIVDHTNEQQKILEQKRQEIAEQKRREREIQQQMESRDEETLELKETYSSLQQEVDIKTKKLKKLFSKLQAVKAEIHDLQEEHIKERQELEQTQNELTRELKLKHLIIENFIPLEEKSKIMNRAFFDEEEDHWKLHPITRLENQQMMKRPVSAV

Kif3A-Kif3B^ΔC90, sequence (Q9Y496 whole entry, stated change not applied, chain 1 of 2): as the sequence (Q9Y496 whole entry, stated change not applied, chain 1 of 2) above
Kif3A-Kif3B^ΔC90, sequence (O15066 1-657, stated change not applied, chain 2 of 2): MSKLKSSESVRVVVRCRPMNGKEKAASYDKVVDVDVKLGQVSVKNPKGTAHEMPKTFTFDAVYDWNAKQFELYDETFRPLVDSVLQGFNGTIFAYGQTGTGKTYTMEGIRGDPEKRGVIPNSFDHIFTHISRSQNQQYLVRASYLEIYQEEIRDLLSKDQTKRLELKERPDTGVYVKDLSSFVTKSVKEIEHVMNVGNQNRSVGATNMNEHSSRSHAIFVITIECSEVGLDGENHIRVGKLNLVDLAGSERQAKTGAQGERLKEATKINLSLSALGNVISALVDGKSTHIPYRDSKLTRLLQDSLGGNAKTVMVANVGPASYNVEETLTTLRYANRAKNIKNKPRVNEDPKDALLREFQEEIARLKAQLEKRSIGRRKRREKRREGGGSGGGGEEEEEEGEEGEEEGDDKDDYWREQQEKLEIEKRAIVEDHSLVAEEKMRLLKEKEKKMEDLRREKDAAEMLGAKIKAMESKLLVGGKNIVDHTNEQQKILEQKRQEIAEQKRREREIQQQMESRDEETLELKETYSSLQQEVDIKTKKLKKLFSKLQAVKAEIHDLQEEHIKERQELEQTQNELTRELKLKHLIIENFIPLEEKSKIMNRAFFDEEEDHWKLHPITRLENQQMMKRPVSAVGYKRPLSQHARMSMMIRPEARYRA
Kif3A^ΔC89-Kif3B, sequence (Q9Y496 1-610, stated change not applied, chain 1 of 2): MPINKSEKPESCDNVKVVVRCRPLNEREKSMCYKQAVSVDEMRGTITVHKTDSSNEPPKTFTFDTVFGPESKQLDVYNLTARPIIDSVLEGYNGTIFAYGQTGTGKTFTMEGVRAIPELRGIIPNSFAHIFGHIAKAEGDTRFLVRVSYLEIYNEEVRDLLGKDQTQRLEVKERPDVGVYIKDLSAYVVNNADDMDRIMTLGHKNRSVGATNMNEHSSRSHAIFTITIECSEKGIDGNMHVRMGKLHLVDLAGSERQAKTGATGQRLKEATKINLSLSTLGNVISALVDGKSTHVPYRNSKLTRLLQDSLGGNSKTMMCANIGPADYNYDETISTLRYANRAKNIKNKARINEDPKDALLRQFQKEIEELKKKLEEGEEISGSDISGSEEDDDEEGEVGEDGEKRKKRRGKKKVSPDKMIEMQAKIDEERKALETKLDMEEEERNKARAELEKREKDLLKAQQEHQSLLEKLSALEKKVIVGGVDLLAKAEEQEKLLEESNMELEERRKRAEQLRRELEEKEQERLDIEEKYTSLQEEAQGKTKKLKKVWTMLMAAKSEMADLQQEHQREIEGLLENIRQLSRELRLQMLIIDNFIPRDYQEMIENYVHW
Kif3A^ΔC89-Kif3B, sequence (O15066 whole entry, stated change not applied, chain 2 of 2): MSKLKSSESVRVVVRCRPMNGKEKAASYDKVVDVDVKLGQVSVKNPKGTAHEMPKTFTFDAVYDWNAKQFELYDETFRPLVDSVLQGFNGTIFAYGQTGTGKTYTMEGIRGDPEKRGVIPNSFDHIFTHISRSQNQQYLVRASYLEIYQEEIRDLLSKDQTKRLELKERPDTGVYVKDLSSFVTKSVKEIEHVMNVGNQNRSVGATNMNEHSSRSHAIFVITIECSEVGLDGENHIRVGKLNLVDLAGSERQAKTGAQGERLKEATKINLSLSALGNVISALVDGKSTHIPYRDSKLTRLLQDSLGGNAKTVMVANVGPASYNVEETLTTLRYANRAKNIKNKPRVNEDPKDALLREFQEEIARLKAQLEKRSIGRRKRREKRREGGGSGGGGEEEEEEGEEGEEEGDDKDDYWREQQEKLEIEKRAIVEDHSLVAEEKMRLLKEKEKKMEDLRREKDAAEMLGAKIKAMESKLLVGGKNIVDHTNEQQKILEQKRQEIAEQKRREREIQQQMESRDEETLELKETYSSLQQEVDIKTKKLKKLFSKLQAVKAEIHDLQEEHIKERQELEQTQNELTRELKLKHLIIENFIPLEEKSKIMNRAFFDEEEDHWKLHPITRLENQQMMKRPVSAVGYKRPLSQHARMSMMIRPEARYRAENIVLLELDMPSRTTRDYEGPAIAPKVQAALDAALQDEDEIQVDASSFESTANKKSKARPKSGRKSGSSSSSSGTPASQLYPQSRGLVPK

percent of Kif3AB molecules with Kap3 co-localized (Kif3A^ΔC89-Kif3B): 26% | percent of Kif3AB molecules with Kap3 co-localized (Kif3A-Kif3B^ΔC90): 62% | percent of Kif3AB molecules with Kap3 co-localized (Kif3A-Kif3B^ΔC114): 50%
B1: Kap3 (natural protein, human, UniProt Q92845 1-792, looked up)
chain: MQGEDARYLKRKVKGGNIDVHPSEKALIVHYEVEATILGEMGDPMLGERKECQKIIRLKSLNANTDITSLARKVVEECKLIHPSKLNEVEQLLYYLQNRRDSLSGKEKKEKSSKPKDPPPFEGMEIDEVANINDMDEYIELLYEDIPDKVRGSALILQLARNPDNLEELLLNETALGALARVLREDWKQSVELATNIIYIFFCFSSFSQFHGLITHYKIGALCMNIIDHELKRHELWQEELSKKKKAVDEDPENQTLRKDYEKTFKKYQGLVVKQEQLLRVALYLLLNLAEDTRTELKMRNKNIVHMLVKALDRDNFELLILVVSFLKKLSIFMENKNDMVEMDIVEKLVKMIPCEHEDLLNITLRLLLNLSFDTGLRNKMVQVGLLPKLTALLGNDNYKQIAMCVLYHISMDDRFKSMFAYTDCIPQLMKMLFECSDERIDLELISFCINLAANKRNVQLICEGNGLKMLMKRALKFKDPLLMKMIRNISQHDGPTKNLFIDYVGDLAAQISNDEEEEFVIECLGTLANLTIPDLDWELVLKEYKLVPYLKDKLKPGAAEDDLVLEVVIMIGTVSMDDSCAALLAKSGIIPALIELLNAQQEDDEFVCQIIYVFYQMVFHQATRDVIIKETQAPAYLIDLMHDKNNEIRKVCDNTLDIIAEYDEEWAKKIQSEKFRWHNSQWLEMVESRQMDESEQYLYGDDRIEPYIHEGDILERPDLFYNSDGLIASEGAISPDFFNDYHLQNGDVVGQHSFPGSLGMDGFGQPVGILGRPATAYGFRPDEPYYYGYGS
modifications: SNAPf tag labeled with TMR in the co-localization assay
